In experiment [1] the target is α-myc (anti-myc antibody coated as second antigen). As to the kind of experiment: phage ELISA. For orientation: An ELISA detects its analyte on a solid surface through an enzyme-linked reagent.
Experiment [2] deals with His (control coat of Table 2). As to the kind of experiment: phage ELISA.

B1: scFv-phage clone 10D (scFv)
scFv: QVQLVQSGGGVVQPGRSLRLSCAASGFTFSSYGMHWVRQAPGKGLEWVAVISYDGSNKYYADSVKGRFTISRDNSKNTLYLQMNSLRSEDTAVYYCARDKRAAFDIWGQGKMVTVSSGLGGLGGGGSGGGGSGGSSGVGSSYELTQAPSLSVSPGQTANIICSGDNLRTKYVSWYQQKPGQSPLLVIYQDTRRPSGIPARFSGSNSGNTATLTISGTQTERESTYYCMTWDVDTTSMIFGGGTKLTVL
For B1, the OD490 in experiment [1] stood at 3.02.

B2: scFv-phage clone 9E (scFv, part only; not given: scFv linker and domain order, part only)
scFv, part: QVQLVESGGGVVQPGRSLRLSCAASGFTFSSYGMHWVRQAPGKGLEWVAVISYDGNNKYYVDSVKGRFTISRDNSKNTLYLQMNSLRSEDTAVYYCARDSGSYLDWYFDLWGRGTLVTVSSQPPSVSVAPGKTARIACGGGNIGDKSVHWYQQKPGQAPVLVIFYDSDRPSGIPKRLSGSNSGNTATLTISRVEAGDEGDYYCQVWDSSSDRPVFGGGTKLTVLG
Take B2: the results for the OD490 in experiment [1] and in experiment [2] were 2.01 and 0.043, respectively.

B3: scFv-phage clone 12D (scFv, part only; not given: scFv linker and domain order, part only)
scFv, part: QVQLVQSGGGVVQPGRSLRLSCVASAFTFSRYGMHWVRQAPGKGLEWVALISYDGSSEYYADSVKGRFNISRDNSKNTVYLQMNSLRAEDTAVYYCVKDGLAAKLGHWGQGTLVTVSSQAPSLSVSPGQTANIICSGDNLRTKYVSWYQQKPGQSPLLVIYQDTRRPSGIPARFSGSNSGNTATLTISGTQTERESTYYCMTWDVDTTSMIFGGGTKLTVLG
As to B3, the results for the OD490 in experiment [1] and in experiment [2] were 0.888 and 0.049, respectively.
